From paper PMC3548793

Legend:
GFP-tagged Sec23 [1] = target: GFP-tagged Sec23 (UniProt Q15436); assay: co-immunoprecipitation (anti-GFP beads) and western blotting, mean of three experiments; conditions: HEK293 cells co-transfected; parent: est. 1.0; read off a plot
GFP-tagged Sec23 [2] = target: GFP-tagged Sec23 (UniProt Q15436); assay: co-immunoprecipitation (anti-GFP beads) and western blotting, single blot quantified; conditions: HEK293 cells co-transfected; parent: 1
GFP-Sec13 = GFP-Sec13 (UniProt P55735); assay: co-immunoprecipitation and western blotting; conditions: parent: 0.8
Sequence of GFP-Sec13 (P55735 whole entry): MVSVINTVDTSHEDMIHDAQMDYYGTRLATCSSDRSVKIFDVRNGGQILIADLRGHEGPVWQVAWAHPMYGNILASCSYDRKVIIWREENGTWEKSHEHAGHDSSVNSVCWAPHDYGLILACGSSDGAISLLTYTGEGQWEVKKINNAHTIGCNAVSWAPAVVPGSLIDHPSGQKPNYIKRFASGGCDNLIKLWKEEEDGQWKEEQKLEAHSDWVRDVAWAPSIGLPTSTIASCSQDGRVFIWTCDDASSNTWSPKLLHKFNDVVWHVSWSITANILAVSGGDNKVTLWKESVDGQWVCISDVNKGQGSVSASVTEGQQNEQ

Sec23 = Sec23 (UniProt Q15436); assay: anti-GFP co-IP, anti-FLAG blot; conditions: reference: wild type; sites S527,S799

Sequence of GFP-tagged Sec23 (Q15436 whole entry): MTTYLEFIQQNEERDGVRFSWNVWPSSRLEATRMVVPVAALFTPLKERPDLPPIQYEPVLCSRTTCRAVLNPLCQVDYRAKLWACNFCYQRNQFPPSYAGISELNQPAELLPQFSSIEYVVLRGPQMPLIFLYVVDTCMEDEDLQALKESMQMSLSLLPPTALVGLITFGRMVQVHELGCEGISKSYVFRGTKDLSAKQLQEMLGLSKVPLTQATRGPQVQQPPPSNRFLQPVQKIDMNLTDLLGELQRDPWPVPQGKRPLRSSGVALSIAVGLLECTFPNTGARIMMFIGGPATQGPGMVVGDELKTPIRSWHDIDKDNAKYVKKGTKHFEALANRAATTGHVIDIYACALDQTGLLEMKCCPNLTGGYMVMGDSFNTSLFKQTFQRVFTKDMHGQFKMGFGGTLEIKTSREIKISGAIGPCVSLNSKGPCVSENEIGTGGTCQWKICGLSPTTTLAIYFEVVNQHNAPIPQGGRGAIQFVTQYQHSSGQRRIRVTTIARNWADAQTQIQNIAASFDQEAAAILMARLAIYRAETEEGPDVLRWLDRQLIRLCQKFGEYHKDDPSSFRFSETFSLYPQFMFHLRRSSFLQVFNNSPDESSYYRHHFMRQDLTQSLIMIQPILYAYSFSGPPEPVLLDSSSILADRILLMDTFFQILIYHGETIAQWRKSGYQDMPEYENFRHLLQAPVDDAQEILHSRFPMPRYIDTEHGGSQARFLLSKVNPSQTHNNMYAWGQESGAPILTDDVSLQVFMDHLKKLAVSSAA
Sequence of FLAG-tagged wild type (WT) Sec31 (from UniProt O94979) S527A; S799A; T1163A; T1165A (O94979 whole entry, stated change not applied): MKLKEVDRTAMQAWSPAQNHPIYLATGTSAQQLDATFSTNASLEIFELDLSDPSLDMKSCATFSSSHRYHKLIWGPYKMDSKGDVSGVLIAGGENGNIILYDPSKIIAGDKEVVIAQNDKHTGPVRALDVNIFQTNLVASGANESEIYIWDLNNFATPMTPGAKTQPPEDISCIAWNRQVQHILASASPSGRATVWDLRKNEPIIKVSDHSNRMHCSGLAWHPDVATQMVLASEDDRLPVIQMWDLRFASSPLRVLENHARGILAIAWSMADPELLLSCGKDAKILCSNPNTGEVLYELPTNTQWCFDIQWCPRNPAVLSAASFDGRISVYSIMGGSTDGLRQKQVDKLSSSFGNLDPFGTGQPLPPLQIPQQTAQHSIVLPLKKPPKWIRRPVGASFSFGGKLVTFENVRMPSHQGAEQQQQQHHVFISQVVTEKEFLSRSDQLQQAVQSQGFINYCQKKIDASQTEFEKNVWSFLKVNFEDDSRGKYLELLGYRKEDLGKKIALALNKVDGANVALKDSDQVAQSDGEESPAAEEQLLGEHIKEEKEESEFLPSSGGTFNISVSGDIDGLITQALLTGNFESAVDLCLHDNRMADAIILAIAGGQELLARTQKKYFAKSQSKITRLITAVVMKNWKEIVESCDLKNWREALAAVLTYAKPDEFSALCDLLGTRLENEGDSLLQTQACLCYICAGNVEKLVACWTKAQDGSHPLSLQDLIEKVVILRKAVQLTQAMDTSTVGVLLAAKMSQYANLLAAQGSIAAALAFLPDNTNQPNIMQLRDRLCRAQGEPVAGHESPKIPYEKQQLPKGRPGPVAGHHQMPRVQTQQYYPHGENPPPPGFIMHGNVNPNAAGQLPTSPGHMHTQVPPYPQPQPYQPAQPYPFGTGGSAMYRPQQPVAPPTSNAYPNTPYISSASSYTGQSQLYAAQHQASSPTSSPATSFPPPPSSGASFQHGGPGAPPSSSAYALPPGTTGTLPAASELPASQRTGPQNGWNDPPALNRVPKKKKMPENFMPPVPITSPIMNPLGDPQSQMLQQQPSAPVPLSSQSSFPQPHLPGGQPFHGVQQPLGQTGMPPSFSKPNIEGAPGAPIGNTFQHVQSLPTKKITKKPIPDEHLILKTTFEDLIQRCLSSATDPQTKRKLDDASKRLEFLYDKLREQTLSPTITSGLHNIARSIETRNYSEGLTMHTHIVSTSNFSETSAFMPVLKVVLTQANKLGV
Sequence of FLAG-tagged wild type (WT) Sec31 (from UniProt O94979) W985A (O94979 whole entry, stated change not applied): as above
Sequence of FLAG-tagged wild type (WT) Sec31 (from UniProt O94979) T1163A (O94979 whole entry, stated change not applied): as above

| Substance | ratio to parent (GFP-tagged Sec23 [1]) | ratio to parent (GFP-tagged Sec23 [2]) | other: normalized ratio of co-IP'ed Sec31 (GFP-Sec13) | fold change (Sec23) |
| --- | --- | --- | --- | --- |
| FLAG-tagged wild type (WT) Sec31 (from UniProt O94979) S527A; S799A; T1163A; T1165A | 3.1 | 3.2 | 1.4 |  |
| FLAG-tagged wild type (WT) Sec31 (from UniProt O94979) T1163A |  |  | 1.1 |  |
| FLAG-tagged wild type (WT) Sec31 (from UniProt O94979) W985A | 0.33 | 0.3 |  |  |
| Sec31 (from UniProt O94979) S527A/S799A |  |  |  | stronger |
